{"source": "the RNAGym collection of RNA variant scans (doi:10.1073/pnas.2313332121)", "parents": {"B1": {"name": "TPR t1 (parent)", "chain": "GACCAAUCUGCCCUCAGAGCUCGAGAACAUCUUCGGAUGCAGAGGAGGCAGGCUUCGGUGGCGCGAUAGCGCCAACGUCCUCAACCUCCAAUGCAUCCCACCACAUGAUGAUGCCUGAAGAGCCUUGGUUUUUUG"}}}
{"variants_of": "B1", "assay": "polymerase ribozyme fitness, log enrichment relative to wild type (log ratio); higher = more active; in vitro selection for triplet polymerase activity", "summary_of_the_method": "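Only genotypes with ≥10 input reads and ≥1 read per output were kept after Illumina sequencing of input and output libraries. These libraries were PCR-built, transcribed mutants of each subunit of a heterodimeric triplet polymerase ribozyme, each put through one triplicate in vitro selection round with frozen incubation at −7 °C, gel excision of extended constructs, streptavidin-bead capture and RT-PCR. Fitness is a logarithmic ratio of genotype enrichment to wild-type enrichment, from inverse-variance-weighted replicate averages, with the logarithm in base 2.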"}
{"variant": "C49A C53G", "polymerase ribozyme fitness (log ratio)": -0.789}
{"variant": "G48U C114G G122A C123G", "polymerase ribozyme fitness (log ratio)": -3.44}
{"variant": "C49A G71A", "polymerase ribozyme fitness (log ratio)": -0.646}
{"variant": "C49G G57C G58C G63U", "polymerase ribozyme fitness (log ratio)": -3.06}
{"variant": "C49A A50C G117U", "polymerase ribozyme fitness (log ratio)": -3.66}
{"variant": "G48U A50G U92C A108G", "polymerase ribozyme fitness (log ratio)": -5.83}
{"variant": "G48C C101U A105G G120U", "polymerase ribozyme fitness (log ratio)": -3.67}
{"variant": "C49A G57U", "polymerase ribozyme fitness (log ratio)": -0.512}
{"variant": "C49A G57A", "polymerase ribozyme fitness (log ratio)": -1.5}
{"variant": "C49A C73A U130C", "polymerase ribozyme fitness (log ratio)": 0.174}
{"variant": "C49G C70G G77U U78A C85A", "polymerase ribozyme fitness (log ratio)": -2.95}
{"variant": "G48U C62G C104A U106C", "polymerase ribozyme fitness (log ratio)": -5.05}
{"variant": "C49G C73G C89U G113A G122C", "polymerase ribozyme fitness (log ratio)": -4.49}
{"variant": "C49G C53A C94U U116G", "polymerase ribozyme fitness (log ratio)": -2.47}
{"variant": "G48C G61U C124A", "polymerase ribozyme fitness (log ratio)": 1.51}
{"variant": "C49A A50C C86U", "polymerase ribozyme fitness (log ratio)": -0.434}
{"variant": "G48U C102A A111G", "polymerase ribozyme fitness (log ratio)": -1.65}
{"variant": "C49A U54A C73U U112C", "polymerase ribozyme fitness (log ratio)": 1.26}
{"variant": "C49G A119U", "polymerase ribozyme fitness (log ratio)": -0.491}
{"variant": "G48U G110A", "polymerase ribozyme fitness (log ratio)": -1.84}
{"variant": "G48U C73G", "polymerase ribozyme fitness (log ratio)": -1.73}
{"variant": "G48U U59A G120U", "polymerase ribozyme fitness (log ratio)": -0.541}
{"variant": "G48U U55G", "polymerase ribozyme fitness (log ratio)": -0.43}
{"variant": "G48U C86A A91C", "polymerase ribozyme fitness (log ratio)": -1.98}
{"variant": "C49A U59A G122A", "polymerase ribozyme fitness (log ratio)": -1.33}
{"variant": "C49A G52C C72A U96C", "polymerase ribozyme fitness (log ratio)": -0.937}
{"variant": "C49A C73G U106G U130C", "polymerase ribozyme fitness (log ratio)": -2.23}
{"variant": "G48C U55C A95C C98U", "polymerase ribozyme fitness (log ratio)": -3.28}
{"variant": "C49A C104G A111C", "polymerase ribozyme fitness (log ratio)": -6.5}
{"variant": "C49A U78A U129G", "polymerase ribozyme fitness (log ratio)": -1.45}
{"variant": "C49G C56G A91C", "polymerase ribozyme fitness (log ratio)": -2.49}
{"variant": "G48U G58U G60U C82G C123U", "polymerase ribozyme fitness (log ratio)": 0.461}
{"variant": "C49A G63U", "polymerase ribozyme fitness (log ratio)": -1.35}
{"variant": "G48U C123U", "polymerase ribozyme fitness (log ratio)": 0.57}
{"variant": "C49A U78G U87G A121G G128U", "polymerase ribozyme fitness (log ratio)": -0.14}
{"variant": "C49A U59A A74U C114U", "polymerase ribozyme fitness (log ratio)": -2.86}
{"variant": "C49A G71A C82A G120U", "polymerase ribozyme fitness (log ratio)": -2.99}
{"variant": "G48U G71A", "polymerase ribozyme fitness (log ratio)": -1.06}
{"variant": "G48U G71U", "polymerase ribozyme fitness (log ratio)": -1.01}
{"variant": "G48U C88U G110A", "polymerase ribozyme fitness (log ratio)": -1.01}
{"variant": "C49A U78G U96G", "polymerase ribozyme fitness (log ratio)": -0.964}
{"variant": "G48U C62A A91U C123U U125A", "polymerase ribozyme fitness (log ratio)": -4.09}
{"variant": "G48C C64G C124U", "polymerase ribozyme fitness (log ratio)": -5.87}
{"variant": "G48U A90U", "polymerase ribozyme fitness (log ratio)": -1.38}
{"variant": "G48U U131C", "polymerase ribozyme fitness (log ratio)": -0.204}
{"variant": "G48U C72G U96C", "polymerase ribozyme fitness (log ratio)": -1.54}
{"variant": "G48U C53G C86U C98A C123G C124A", "polymerase ribozyme fitness (log ratio)": -5.23}
{"variant": "G48C G77A", "polymerase ribozyme fitness (log ratio)": -1.21}
{"variant": "C49A G51C G57C C72U C115G", "polymerase ribozyme fitness (log ratio)": -3.69}
{"variant": "G48C G113U C123A", "polymerase ribozyme fitness (log ratio)": -4.5}
{"variant": "G48U U54C", "polymerase ribozyme fitness (log ratio)": -1.22}
{"variant": "G48U G110U U125A", "polymerase ribozyme fitness (log ratio)": -2.52}
{"variant": "C49G A91U", "polymerase ribozyme fitness (log ratio)": -2.92}
{"variant": "C49G A100C C101U", "polymerase ribozyme fitness (log ratio)": -1.62}
{"variant": "C49G C82U G93U G117U", "polymerase ribozyme fitness (log ratio)": -4.66}
{"variant": "C49G C97G", "polymerase ribozyme fitness (log ratio)": -4.99}
{"variant": "C49G C101U U131C", "polymerase ribozyme fitness (log ratio)": -0.189}
{"variant": "G48U A83G C97U C104A G120A", "polymerase ribozyme fitness (log ratio)": -3.43}
{"variant": "C49A A91G G93U G117U G135A", "polymerase ribozyme fitness (log ratio)": -6.28}
{"variant": "C49G C56G C88U G120C G127A", "polymerase ribozyme fitness (log ratio)": -2.45}
{"variant": "G48U U106A G128C", "polymerase ribozyme fitness (log ratio)": -3.74}
{"variant": "C49A G71C C98U", "polymerase ribozyme fitness (log ratio)": -2.91}
{"variant": "C49A G60A A121C G122A", "polymerase ribozyme fitness (log ratio)": 0.833}
{"variant": "G48U G93A G120A", "polymerase ribozyme fitness (log ratio)": -0.388}
{"variant": "C49G C88A U96G U125G", "polymerase ribozyme fitness (log ratio)": -2.28}
{"variant": "C49A C88U C94U C123U U132G G135U", "polymerase ribozyme fitness (log ratio)": -1.38}
{"variant": "C49G A83G", "polymerase ribozyme fitness (log ratio)": 0.789}
{"variant": "G48U G52U A90G A91U C114U", "polymerase ribozyme fitness (log ratio)": -2.83}
{"variant": "G48U A95U G117U", "polymerase ribozyme fitness (log ratio)": -3.3}
{"variant": "G48U G61U", "polymerase ribozyme fitness (log ratio)": 0.43}
{"variant": "C49G C101G", "polymerase ribozyme fitness (log ratio)": -1.92}
{"variant": "C49A G110C U112A", "polymerase ribozyme fitness (log ratio)": -5.99}
{"variant": "G48U G71U C114U", "polymerase ribozyme fitness (log ratio)": -3.21}
{"variant": "C49G", "polymerase ribozyme fitness (log ratio)": -0.312}
{"variant": "C49A", "polymerase ribozyme fitness (log ratio)": -0.241}
{"variant": "G48C U133G", "polymerase ribozyme fitness (log ratio)": -1.8}
{"variant": "C49G A103U", "polymerase ribozyme fitness (log ratio)": -5.7}
{"variant": "C49A A111C G113U", "polymerase ribozyme fitness (log ratio)": -5.03}
{"variant": "C49A G127U", "polymerase ribozyme fitness (log ratio)": -1.02}
{"variant": "C49G G52A C53U A84G C85U C94U", "polymerase ribozyme fitness (log ratio)": -1.34}
{"variant": "C49A C70A", "polymerase ribozyme fitness (log ratio)": -1.29}
{"variant": "C49A C70G", "polymerase ribozyme fitness (log ratio)": -4.31}
{"variant": "C49G A103U C124U", "polymerase ribozyme fitness (log ratio)": -4.18}
{"variant": "G48U G51C A95C A111G U134A", "polymerase ribozyme fitness (log ratio)": -4.35}
